{"source": "the NTF2 design screens of Basanta et al. (2020)", "data": [{"test": "protease stability score; higher = more stable; yeast display proteolysis, trypsin and chymotrypsin;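 also: relative to predicted unfolded state with 0 unfolded-like and 1 meaning tenfold more protease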", "values": [{"sequence": "DELHETVEHAMERMIESSKTGDWRSLTKLMDPNVRMHIDGVDLIGWEIAVRVILEIRIEHVHIHHIDVQGDKMEVDVSVRIHFNGKHEDRQIVLFAEKVDGRWINRSVEIR", "protease stability score": 1}, {"sequence": "DESQEIAIEASKRLYNHLLTGDEDNLKRLLDPHVRIEIDGRDIHGMEEVTRLKREWRFDSIEIRVDSVRDVNGRLDVKGHMRYHVRIGDKSHDREVKMHLTAEKIDGRWHNKSIHFE", "protease stability score": 1.26}, {"sequence": "TEDDELLHRAERLVYHSLLTGDFHTLKHLMDPHVRTHIDGRDTHGRDKATNFFIKYWEDLGVKHITYEDMHVHFFEGHLTVLLIVKLNIDGRERRNVYIFIFMKIDGKWLNHEVHIHIN", "protease stability score": 0.651}, {"sequence": "SEEEEFAERLVRMFEEELATGDEHKLQRLLDPHVKVEINGREIIGREEWTNHLDHIRLELHDTKLREVRVQGDKIHVHGKTDIIIKVGDKSERHHVEVLFIIKKINGRWILERVHVR", "protease stability score": 1.13}, {"sequence": "TDEEELAERLARIMIHLFLTGNEEIMSKLLDPDVRSWVNGQEFHGREEEAKVVRKMIEEWRFHDMHIHDVHVINGRLHVDSRVDNRVGDKTIDIRTELRFDVVNGRLKILEWHFT", "protease stability score": 0.341}, {"sequence": "SELEKLLLDIARKLIHSYLTGDWRTFQELADPNVKIRVVVGDKEERIHGRENIIEWLERERKQYDHIEVRIDDERTIGDKLHIDGTFIIRVDGKTRFSRVEIHLLIIDGKVTSLEFHEK", "protease stability score": 1.07}, {"sequence": "SEEEELFEIAIRIFLHILHTGNEEDFHRFADPNMRMIIGDKEHHGWEEVFKWFEFVFRHARIKDTEIKSVRIINGRVHNEGRVNININGVEVIKEVHLVSEKVDGKWVLKRVEIR", "protease stability score": 1.52}, {"sequence": "DEREELLRRWTEEFLDVFHTGDPKETMDMVDPHARIIVIINGRTIEDHGWEHVKILLEQIRVHDFHLTDVRVVNGKVRIDGRYDGYVNGQRVDHHVIIINVVVDGRTHTLLIEIR", "protease stability score": 0.804}, {"sequence": "SEEEEKARRLSELITRSFLTGDEEELEELLDPNARNIYNGVIVHGREEVSRLFHEEWLRYGIDHVRLEDMHIDVQGDKVDFHIIMRSEFNGRVHHVRVEVHIEKVDGRWVMKRLELRFS", "protease stability score": 0.977}, {"sequence": "SEDEEVVKEWIKVVLHSMVTGDEDDVRRLFDPHTRIEINGVLFIGRKWAETLARRVDHHHIETIEYHRSHVVDGVATVDGTFRGREEVDGRKIEHHFRIEFVIMKIDGRWVTQQMRIK", "protease stability score": 1.56}, {"sequence": "SEDEEHSRIFVQLFQRAVETGDEDRMLQLMDPDARVHIGDKTYHGMFQFVRWLHDQLKRFKNIRIEWRLTEIDVFENHIIIKGELRLKAEGVDHIHNVIIYVNKINGRWIVHHMEIR", "protease stability score": 1.52}, {"sequence": "TEEEDLIRRQIHELRETLQTGDEHLLNWLLDPHARMEIDGQEVWGREEIAKFLHRFKNITVLFNDMIVQGDKVDIDGQIEFNGRRRRARLISDKVDGQWIDHDIIII", "protease stability score": 1.3}, {"sequence": "DEREEEAERILREWIKAVETGDFEQIMRYLDPNVRIIVNGKHHHGREILVHLIIRFLRELGADHITFHHDRIHLYDGVLVIDIHLEIRQGDKRYEFHEEIYIIKVNGRWIVRRVIIR", "protease stability score": 2.8}, {"sequence": "SEDEESLKKFIELLFHSLHTGDWKDIHKNLDPHVRIEFNGQELHGREELIELIEELMKRFDHIHFRFRDVRIYGNKAVLETELELRVGDKSSRIDVTIIIEKVNGRWIIRRLHFK", "protease stability score": 2.48}, {"sequence": "DEDEEVIRRMLETELNAVKTGDWRKFYELADPSVLVDIDGKKIHGRELWSRHLMHLRIDEIHIRIDHMDVVNGVAELHIKMEFRGTIDGVHRKQSTEVILFIKKIDGQWVIQKIEVR", "protease stability score": 1.27}, {"sequence": "DEDEKERKRDLDKLRHFLETGNEQHLLEMLDPHARVTVGDKELIGREDFSKWMLEMRIHHDEIKRLEIYNGRIHVDYEMDVEVGDKRFRTDFRITARKVNGRWILHSMEVK", "protease stability score": 1.54}, {"sequence": "DEHQEEIKEMFRRMIHALETGDEDFFNHLADPHVLFHEHFNGRSFELHGREEFSKWLQSHREEIRLRNVHYHDIRIYNGVVHFDGRIVWHQGDKTIDRKVHWRTFVIDGRAKKVEIHVK", "protease stability score": 0.621}, {"sequence": "SEDRKLAEILVKITMDILHTGDEEEWLKLLDPHTRIDFDGRDMHGREFFMKVFRDWGIDNIEVHLHDVKVQGDFLDINVSVHINGRKIDHRLIVEKIDGRWIIREFEVR", "protease stability score": 1.58}, {"sequence": "SEDERLVRHALNELLHHIETGDEERLIKLIDPNYRISINGQELHGWEEYVRLIREWRIRRFRVKDVDVQGDKANLDVRTHGDIDGQHHDFTIKIIATKINGRWINEEIIVE", "protease stability score": 2.4}, {"sequence": "SSEEEDIEWATEVLVMSFITGDWKLSHKLMDPNVLSIVNGREFHGRELAVKHLHEMTEKIKGLRIETHDLKHINIFNGRARVHSIVRGDINGRKVDSMIDVITNKFDGRWVIESVQFI", "protease stability score": 1.45}, {"sequence": "SEEHHSEKLAIHLSKEISHTGDETWIKKMLDPNVKIVIGDKEFHGMENFVTHWHRLVKELGVDRVRHRVEDSDVQGDKLTMHVEIEVNGRKVESHIIAHKFNGRWLVKEIIFH", "protease stability score": 1.23}, {"sequence": "DEDHEHLKRMADRSWKIFLTGDEDTFVHLADPNVKQHINIDGRNHQNHGREVILRWQEEFQNYFKNMKIELHDMKFYDGRVHIDATLHWNGVERKIHLIFVIVDGRIKEERFHVR", "protease stability score": 0.707}, {"sequence": "DEDTHDTKKAVEEFIHTVRTGDEHSLRRQLDPNARVEVGDKEQHGRLFIEWFIRMLGIDNVDVRVHDHHVYDGRVEVDLLLHVDGRDFRVNIVWDKINGQWRNRMVIFR", "protease stability score": 1.17}, {"sequence": "DETHKLLEDLTRLFWELTHTGDEEIVEELADPHVRSEINGKERHGREEHVKAWREWRIERMTLRSVSVINGQMSIDGEIVLKIGDKRIETRIEIRIHIVDGVMKSVKIHLE", "protease stability score": 0.937}, {"sequence": "DEDEEKARKFTELLVRSWRTGDEDSLREMVDPHVRVDVDGVKLHGWHDFMKLVRHIRVRDLHNREFTFFEGRADIIQETDVDIGDKERRTVITIRMTKYDGRWFLHNVTVH", "protease stability score": 1.38}, {"sequence": "LEEEEEAKTMIEHHFDNFRTGDEDLIHKLADPHVRVLYNGKILHGREKLVEMIHKLVEKMGVDHLEYRHRDMKIWDGQVEVHGERIIRQGDKTYRFDVILFVLKVDGRWVIKEVRVQ", "protease stability score": 1.47}, {"sequence": "DEDKEEIMEAIKEFLTNLQTGDEERLFELFDPHVRLKVNGQLYHGREDLVRHLSELGVKHWRLRSVEIQGEKAIMHGLVNVDGRSVRMIIEAEKVNGRWRMRHFESH", "protease stability score": 1.84}, {"sequence": "TEEEEEFHEILEHFLTQLHTGDWEEIIKNLDPNVLFHFNGVLFHGREEVSRFLVEWFDKIKGMRIHIHELRIVGDKATIDTRLDVGEKTHRVIIHIRKINGRWLITEIRIE", "protease stability score": 2.02}, {"sequence": "TEEEEAAKRVFRLLLENAKTGDEDHLRELIDPNVRIHVDGRTLIGMEQFKRFWSEMRVHHWDQKSVDFVNGRVHSDTIINSHVDGQTIHIDVRIIITKIDGQWVVESFSVS", "protease stability score": 1.17}, {"sequence": "RQEEHDMEYAREIVERVLDTGDEHLMEEYFDPNAKLRIGDKEDHGREVFAHWVREIRVRHVQLTDHRLVGDKLEFDIELDININGREHRTKVHLIIRKVNGKWFIQHVEIR", "protease stability score": 1.19}, {"sequence": "SSQEKFLKELVEIWVELWRTGNEEAFKRLADPDAKNDVNGVYSHGMENVEKLLKHFGIKHVEINDVKVQGDKVIMDGIIEFNGVTIKEHVEIVIVNGRFKELRIRRE", "protease stability score": 0.788}, {"sequence": "DEEEKHARKVFRELEESLRTGDEHSMRRLLDPHTKIIINGQEHVGMEHADKFVHELRLKDSKIRHLEMHVIDGQAHLKMDVDVEGNFNGRDTRDRVTEIWIVDKINGRWLVSEVRFVKR", "protease stability score": 1.13}, {"sequence": "SETEELASKVTKEFKRVLETGDWRVSLNLLDPDTLLEINGVEFHGREAWEEFNERFKNVKIHFIERDMKIVGNKIKIEGHLEDRWNGQSTHREMHLVFDKVNGRWFNRSVHFG", "protease stability score": 0.57}, {"sequence": "DEDRERSEEIAKLILRSWLTGDERLLEELFDPHARVHINGKEFHGMEKFTEFSRHIRMDRVIIHDVKLIGDKMHIEQEIIITFDGRHLHVRSIIIVLKVNGQWVSRSLEIH", "protease stability score": 1.16}, {"sequence": "SEEHEVAKDAFDVTSHSWKTGDEELFRKLLDPNARFEIDGRDLHGRELVIKFIIEIRWEHTHVEEINVQGDKIIIKSRMEIHYNGVHINITVIVHVRKVNGRWITTHYIFI", "protease stability score": 1.67}, {"sequence": "DDHEKIVQHLLEEIIEIWLTGNFEEHLKRFDPDMRLNVNGVEHHGRESNERWFNKQIERYKNATIHHRIESVDVQGDKVHSDGELIYIQGDKIIRTKIIVRLLVVNGRIKRIEIEMI", "protease stability score": 1.31}, {"sequence": "DEDHKWAKFMFEVFKKVVETGDEEVFKHLADPNVRMEVGDKEFIGREEFRRFLNELRIHHQRDTHIEIRSVGDKIEVLIDGETTIEVGDKTRDHRMRVILFTMKVDGRWLIRSIRFEIH", "protease stability score": 1.56}, {"sequence": "SETEEWQHQILEILERIQKTGDPHEFMHNADPHVRLHVNGRDFHGMELFKEMFEKFGAKVSHLRDVDIQGDKIHVDGELEFNGVTHKSHVDARKVDGRWVLTRYTIK", "protease stability score": 0.415}, {"sequence": "DEEDHLMKHASEMFLHVMKTGDEDTLRRLVDPHVRLDWNGRKWHGRETVTRIIVENIHELGIDHIHLNHFEIYNGQADTNIEVRYNGKREEYHIHMHKVNGRWTVKSIHVTEE", "protease stability score": 1.5}, {"sequence": "DESERIILHIANEFLHLYATGDEDRLRELADPHVRLDVDGQDVHGRELTQKWWKRFVEEIRIRDLHLKDYYIIGEKYHIEGHTRLHIGDKHVETEIRIHIVVVNGKIKSESFHLR", "protease stability score": 0.541}, {"sequence": "SEEHDKLQRLIRQWWSEFETGDEDKLTEMFDPHARLHIDGRDVIGRENVSKFVFDFFFEMRIHRTHIEHVDAQGDFLILHYHVRGTVNGRESDIHVLIIFTVVNGRMKSVHVHNE", "protease stability score": 1.38}, {"sequence": "DELEHFALKFAEEWLQHYLTGNEEMISKLHDPHVKLHIGDKDLIGWEKFEEFLRETLSRVDHLHFNIRSVQSQGNKIVFDGKYIVIQGDKRYEFDIEFHIVVFNGRVHRIHYESH", "protease stability score": 1.58}, {"sequence": "SDLHHIVDNLLQEWLHARLTGDEDRLLELMDPDAREDVNGRTLVGREDSWKIMLELRFRVEHWHIHRLEIQGDKIDMDIEFDVRFDVDGVPYRLRTRQKIHIDVYNGKIQRLQVHIL", "protease stability score": 0.325}, {"sequence": "DEREEHAEEIFRELIHWMETGDEKKMRRYFDPHARLEVGDKEFIGREKISEWMVELRLKDHKERHFDVVNGVAEIHGVMDGIIDGRRHRTEVIIDINIINGKFHRIRIIVK", "protease stability score": 1.21}, {"sequence": "DELNEITHKFMHEFLRAELTGDWEELHRMLDPHARYIAHIDGREIHFIGRERVLKFMEEWLRRVKNVRIQINDHRVQGDYNHIDGKLKINGKTHDVHIELVMVDGRNHEIHVFIH", "protease stability score": 1.61}, {"sequence": "NEEKELWHKDIEDLQRDWKTGDEDSVREQLDPDVRLDINGVEIIGMEEATRFIIELMREIRIHVNLERIIIQGDKIILHGNLVVEQGDKHHITRQTIDARKVDGRWFEHKVRVE", "protease stability score": -0.033}, {"sequence": "DDRKKEAHELFEFLLDVFRTGDEKSTEELLDPHTRNVIGDKHYHGRDVWVTFMKKFKNAKVHFNHLEVQGDKVTFDITFEIGDKTHRMRFFLEKYDGRWFIKEIQVD", "protease stability score": 1.44}, {"sequence": "DEREHSVKLAFDKFLEDLHTGNEEMLDRFLDPHVRYHVGDKERHGRENFSRHVAKFLTEYGFKHLHLHMKDWEVQGDKATIEGHVNMHFNGRLIRHNTHLVIWKVNGRWLLESSEER", "protease stability score": 0.699}, {"sequence": "SEDEEHDHKLARWILELLHTGDEETFLDLMDPNTRVIIHVGDKRIHNHGREVVKRIQEQLEEDWGVSRVEIHIRRMTIIDGRVRIDGLLEYDGRRHEIHMIFVIINGKIHSEEQHIH", "protease stability score": 1.46}, {"sequence": "SEEDKWIKDMTHLFLHWFLTGDEEIFNHFADPNVRVQYGDKWRVGRERVSEFNEFVLRELRFKEIRLKNLSTQGEKATSIVRVDVQFDGKEIDIEIRIHIVVVDGVLKQVEIRET", "protease stability score": 0.795}]}]}
